In one assay the target is HLA-B*27:05-KF9 tetramer. As to the kind of experiment: tetramer staining of transfected HEK293 cells. Conditions: chain shown with the change; 0.2 μg tetramer; parent: est. 100; read off a plot.
The target in assay [1] is HLA-B*27:05-KF9 N8H tetramer. In words: tetramer staining of transfected HEK293 cells. The conditions noted are these: chain shown with the change; 0.2 μg tetramer; parent: est. 100; read off a plot.

Changes are numbered by the printed parent chain. Names and notes keep the numbering of the source.

B1: FLAG-tagged 3DL1*001, P43629 M165A (protein)
chain: HMGGQDKPFLSAWPSAVVPRGGHVTLRCHYRHRFNNFMLYKEDRIHIPIFHGRIFQESFNMSPVTTAHAGNYTCRGSHPHSPTGWSAPSNPVVIMVTGNHRKPSLLAHPGPLVKSGERVILQCWSDIMFEHFFLHKEGISKDPSRLVGQIHDGVSKANFSIGPMALALAGTYRCYGSVTHTPYQLSAPSDPLDIVVTGPYEKPSLSAQPGPKVQAGESVTLSCSSRSSYDMYHLSREGGAHERRLPAVRKVNRTFQADFPLGPATHGGTYRCFGSFRHSPYEWSDPSDPLLVSVTGNPSSSWPSPTEPSSKSGNPRHLHILIGTSVVIILFILLLFFLLHLWCSNKKNAAVMDQEPAGNRTANSEDSDEQDPEEVTYAQLDHCVFTQRKITRPSQRPKTPPTDTILYTELPNAKPRSKVVSCP
Consider B1, for which the values for the percent of parent (with HLA-B*27:05-KF9 tetramer; in assay [1]) were 60 % of ·001 and 61 % of ·001, respectively.

B2: FLAG-tagged 3DL1*001, P43629 E282Q (protein)
chain: B1 chain with A165M, E282Q
On to B2, for which the figures for the percent of parent (with HLA-B*27:05-KF9 tetramer; in assay [1]) were 99 % of ·001 and 89 % of ·001, respectively.

B3: FLAG-tagged 3DL1*001, P43629 L166V (protein)
chain: B1 chain with A165M, L166V
As to B3, the percent of parent in the assay with HLA-B*27:05-KF9 tetramer was 36 % of ·001; in assay [1], 58 % of ·001.

B4: FLAG-tagged 3DL1*001, P43629 L166A (protein)
chain: B1 chain with A165M, L166A
B4: the percent of parent in the assay with HLA-B*27:05-KF9 tetramer is 56 % of ·001; in assay [1], 45 % of ·001.

B5: FLAG-tagged 3DL1*001, P43629 D230A (protein)
chain: B1 chain with A165M, D230A
As for B5, the percent of parent in the assay with HLA-B*27:05-KF9 tetramer was 70 % of ·001; in assay [1] it was 66 % of ·001.

B6: FLAG-tagged 3DL1*001, P43629 E282A (protein)
chain: B1 chain with A165M, E282A
For B6, the values for the percent of parent (with HLA-B*27:05-KF9 tetramer; in assay [1]) were 51 % of ·001 and 48 % of ·001, respectively.

B7: FLAG-tagged 3DL1*001, P43629 P199A (protein)
chain: B1 chain with A165M, P199A
In the case of B7, the percent of parent (with HLA-B*27:05-KF9 tetramer; in assay [1]) was 21 % of ·001 throughout.

B8: FLAG-tagged 3DL1*001, P43629 Y200A (protein)
chain: B1 chain with A165M, Y200A
Take B8: the percent of parent with HLA-B*27:05-KF9 tetramer is 16 % of ·001; in assay [1] it was 15 % of ·001.

B9: FLAG-tagged 3DL1*001, P43629 A167G (protein)
chain: B1 chain with A165M, A167G
For B9, the figures for the percent of parent (in the assay with HLA-B*27:05-KF9 tetramer; in assay [1]) were 65 % of ·001 and 130 % of ·001, respectively.

B10: FLAG-tagged 3DL1*001, P43629 Y200F (protein)
chain: B1 chain with A165M, Y200F
Take B10: the percent of parent in the assay with HLA-B*27:05-KF9 tetramer is 87 % of ·001; in assay [1], 81 % of ·001.

The record behind these values is paper PMC3948114.
